Laboratory results from the supplement of paper PMC11246515.
± gives the standard deviation of the averaged measurements.

Assay: total protein half-life in vivo (active degradation + dilution); higher = more stable protein
[1] = E. coli NCM3722 delta-lon, growth: N-lim chemostat, doubling time 6 h
[2] = E. coli NCM3722 delta-smpB, growth: N-lim chemostat, doubling time 6 h
[3] = wild type E. coli NCM3722, growth: C-lim chemostat, doubling time 3 h
[4] = E. coli NCM3722 delta-clpP, growth: N-lim chemostat, doubling time 6 h
[5] = wild type E. coli NCM3722, growth: P-lim chemostat, doubling time 12 h
[6] = E. coli NCM3722 delta-clpP delta-lon delta-hslV, growth: N-lim chemostat, doubling time 6 h
[7] = E. coli NCM3722 delta-hslV, growth: N-lim chemostat, doubling time 6 h
[8] = wild type E. coli NCM3722, growth: C-lim chemostat, doubling time 6 h
[9] = wild type E. coli NCM3722, growth: C-lim chemostat, doubling time 12 h
[10] = wild type E. coli NCM3722, growth: N-lim chemostat, doubling time 6 h
[11] = wild type E. coli NCM3722, growth: N-lim chemostat, doubling time 12 h
[12] = wild type E. coli NCM3722, growth: P-lim chemostat, doubling time 6 h

Row | Sequence | total protein half-life in vivo [1] [h] | total protein half-life in vivo [2] [h] | total protein half-life in vivo [3] [h] | total protein half-life in vivo [4] [h] | total protein half-life in vivo [5] [h] | total protein half-life in vivo [6] [h] | total protein half-life in vivo [7] [h] | total protein half-life in vivo [8] [h] | total protein half-life in vivo [9] [h] | total protein half-life in vivo [10] [h] | total protein half-life in vivo [11] [h] | total protein half-life in vivo [12] [h]
1 | MAYRDQPLGELALSIPRASALFRKYDMDYCCGGKQTLARAAARKELDVEVIEAELAKLAEQPIEKDWRSAPLAEIIDHIIVRYHDRHREQLPELILQATKVERVHADKPSVPKGLTKYLTMLHEELSSHMMKEEQILFPMIKQGMGSQAMGPISVMESEHDEAGELLEVIKHTTNNVTPPPEACTTWKAMYNGINELIDDLMDHISLENNVLFPRALAGE | > 8 | 2.54 | 2.72 | – | – | – | – | – | – | – | – | –
2 | MNVIAILNHMGVYFKEEPIRELHRALERLNFQIVYPNDRDDLLKLIENNARLCGVIFDWDKYNLELCEEISKMNENLPLYAFANTYSTLDVSLNDLRLQISFFEYALGAAEDIANKIKQTTDEYINTILPPLTKALFKYVREGKYTFCTPGHMGGTAFQKSPVGSLFYDFFGPNTMKSDISISVSELGSLLDHSGPHKEAEQYIARVFNADRSYMVTNGTSTANKIVGMYSAPAGSTILIDRNCHKSLTHLMMMSDVTPIYFRPTRNAYGILGGIPQSEFQHATIAKRVKETPNATWPVHAVITNSTYDGLLYNTDFIKKTLDVKSIHFDSAWVPYTNFSPIYEGKCGMSGGRVEGKVIYETQSTHKLLAAFSQASMIHVKGDVNEETFNEAYMMHTTTSPHYGIVASTETAAAMMKGNAGKRLINGSIERAIKFRKEIKRLRTESDGWFFDVWQPDHIDTTECWPLRSDSTWHGFKNIDNEHMYLDPIKVTLLTPGMEKDGTMSDFGIPASIVAKYLDEHGIVVEKTGPYNLLFLFSIGIDKTKALSLLRALTDFKRAFDLNLRVKNMLPSLYREDPEFYENMRIQELAQNIHKLIVHHNLPDLMYRAFEVLPTMVMTPYAAFQKELHGMTEEVYLDEMVGRINANMILPYPPGVPLVMPGEMITEESRPVLEFLQMLCEIGAHYPGFETDIHGAYRQADGRYTVKVLKEESKK [P0A9H3] | – | – | – | 5.68 | 11.6 | – | – | – | – | – | – | –
3 | MKTGPLNESELEWLDDILTKYNTDHAILDVAELDGLLTAVLSSPQEIEPEQWLVAVWGGADYVPRWASEKEMTRFMNLAFQHMADTAERLNEFPEQFEPLFGLREVDGSELTIVEEWCFGYMRGVALSDWSTLPDSLKPALEAIALHGTEENFERVEKMSPEAFEESVDAIRLAALDLHAYWMAHPQEKAVQQPIKAEEKPGRNDPCPCGSGKKFKQCCLH [P0AD05] | 4.39 ± 0.54 | 3.3 ± 0.53 | – | 5.13 ± 1.1 | 8.41 ± 0.26 | 5.402 ± 0.046 | 4.22 ± 0.47 | 5.21 ± 1.5 | 8.89 ± 1.9 | 3.93 ± 0.25 | 5.34 ± 1.1 | 4.67 ± 0.34
4 | MKIVIAPDSYKESLSASEVAQAIEKGFREIFPDAQYVSVPVADGGEGTVEAMIAATQGAERHAWVTGPLGEKVNASWGISGDGKTAFIEMAAASGLELVPAEKRDPLVTTSRGTGELILQALESGATNIIIGIGGSATNDGGAGMVQALGAKLCDANGNEIGFGGGSLNTLNDIDISGLDPRLKDCVIRVACDVTNPLVGDNGASRIFGPQKGASEAMIVELDNNLSHYAEVIKKALHVDVKDVPGAGAAGGMGAALMAFLGAELKSGIEIVTTALNLEEHIHDCTLVITGEGRIDSQSIHGKVPIGVANVAKKYHKPVIGIAGSLTDDVGVVHQHGIDAVFSVLTSIGTLDEAFRGAYDNICRASRNIAATLAIGMRNAG | 2.05 | 3.17 ± 1.2 | 3.01 ± 0.68 | 2.26 ± 0.32 | 10.4 ± 2.5 | 3.21 ± 0.32 | – | 5.02 ± 1.3 | 9.27 ± 0.37 | 2.08 ± 0.076 | 10.9 | 5.89 ± 0.76
5 | MKDERRPICEVVAESIERLIIDGVLKVGQPLPSERRLCEKLGFSRSALREGLTVLRGRGIIETAQGRDSRVARLNRVQDTSPLIHLFSTQPRTLYDLLDVRALLEGESARLAATLGTQADFVVITRCYEKMLAASENNKEISLIEHAQLDHAFHLAICQASHNQVLVFTLQSLTDLMFNSVFASVNNLYHRPQQKKQIDRQHARIYNAVLQRLPHVAQRAARDHVRTVKKNLHDIELEGHHLIRSAVPLEMNLS [P0ACL5] | 1.21 | 1.37 ± 0.029 | 1.3 ± 0.1 | 1.35 | 2.65 ± 0.72 | 4.767 ± 0.025 | – | 2.15 ± 0.25 | 2.35 ± 0.16 | 1.21 ± 0.14 | 1.68 ± 0.18 | 1.56 ± 0.22
6 | MAQPAAIIRIKNLRLRTFIGIKEEEINNRQDIVINVTIHYPADKARTSEDINDALNYRTVTKNIIQHVENNRFSLLEKLTQDVLDIAREHHWVTYAEVEIDKLHALRYADSVSMTLSWQR [P0AC19] | 3.5 ± 0.081 | 2.93 ± 0.14 | – | 2.73 ± 0.7 | 11.5 ± 0.42 | 4.1 ± 0.57 | 2.79 ± 0.23 | 4.77 ± 0.2 | 10 ± 4 | 2.58 ± 0.23 | 3.989 ± 0.015 | 5.16 ± 0.45
7 | MPGKIAVEVAYALPEKQYLQRVTLQEGATVEEAIRASGLLELRTDIDLTKNKVGIYSRPAKLSDSVHDGDRVEIYRPLIADPKELRRQRAEKSANK | 4.06 | 2.89 ± 0.05 | 2.87 | 5.02 ± 0.35 | 8.44 ± 1 | 5.54 ± 0.24 | 3.33 | 5.02 ± 0.71 | 6.3 ± 3.5 | 3.34 ± 0.09 | 5.54 | 5.31
8 | MSELKISPELLQISPEVQDALKNKKPVVALESTIISHGMPFPQNAQTAIEVEETIRKQGAVPATIAIIGGVMKVGLSKEEIELLGREGHNVTKVSRRDLPFVVAAGKNGATTVASTMIIAALAGIKVFATGGIGGVHRGAEHTFDISADLQELANTNVTVVCAGAKSILDLGLTTEYLETFGVPLIGYQTKALPAFFCRTSPFDVSIRLDSASEIARAMVVKWQSGLNGGLVVANPIPEQFAMPEHTINAAIDQAVAEAEAQGVIGKESTPFLLARVAELTGGDSLKSNIQLVFNNAILASEIAKEYQRLAG | – | 1.52 ± 0.068 | 2.56 ± 0.11 | – | 4.2 | – | – | 4.42 ± 0.53 | 6.33 ± 0.81 | – | – | –
9 | MLSTLRRTLFALLACASFIVHAAAPDEITTAWPVNVGPLNPHLYTPNQMFAQSMVYEPLVKYQADGSVIPWLAKSWTHSEDGKTWTFTLRDDVKFSNGEPFDAEAAAENFRAVLDNRQRHAWLELANQIVDVKALSKTELQITLKSAYYPFLQELALPRPFRFIAPSQFKNHETMNGIKAPIGTGPWILQESKLNQYDVFVRNENYWGEKPAIKKITFNVIPDPTTRAVAFETGDIDLLYGNEGLLPLDTFARFSQNPAYHTQLSQPIETVMLALNTAKAPTNELAVREALNYAVNKKSLIDNALYGTQQVADTLFAPSVPYANLGLKPSQYDPQKAKALLEKAGWTLPAGKDIREKNGQPLRIELSFIGTDALSKSMAEIIQADMRQIGADVSLIGEEESSIYARQRDGRFGMIFHRTWGAPYDPHAFLSSMRVPSHADFQAQQGLADKPLIDKEIGEVLATHDETQRQALYRDILTRLHDEAVYLPISYISMMVVSKPELGNIPYAPIATEIPFEQIKPVKP | > 8 | – | – | 6.35 | – | 6.58 | > 8 | > 8 | > 16 | 6.2 | > 16 | 6.61
10 | MICRFIDTHCHFDFPPFSGDEEASLQRAAQAGVGKIIVPATEAENFARVLALAENYQPLYAALGLHPGMLEKHSDVSLEQLQQALERRPAKVVAVGEIGLDLFGDDPQFERQQWLLDEQLKLAKRYDLPVILHSRRTHDKLAMHLKRHDLPRTGVVHGFSGSLQQAERFVQLGYKIGVGGTITYPRASKTRDVIAKLPLASLLLETDAPDMPLNGFQGQPNRPEQAARVFAVLCELRREPADEIAQALLNNTYTLFNVP | 6.38 ± 1.4 | 4.45 ± 0.36 | 3.12 ± 0.34 | 4.26 ± 0.21 | 12.3 ± 0.15 | 5.92 ± 0.41 | 4.72 ± 0.12 | > 8 | 9.45 ± 4.5 | 4.57 ± 0.41 | 8.41 ± 1.9 | –
11 | MNNSINHKFHHISRAEYQELLAVSRGDAVADYIIDNVSILDLINGGEISGPIVIKGRYIAGVGAEYTDAPALQRIDARGATAVPGFIDAHLHIESSMMTPVTFETATLPRGLTTVICDPHEIVNVMGEAGFAWFARCAEQARQNQYLQVSSCVPALEGCDVNGASFTLEQMLAWRDHPQVTGLAEMMDYPGVISGQNALLDKLDAFRHLTLDGHCPGLGGKELNAYITAGIENCHESYQLEEGRRKLQLGMSLMIREGSAARNLNALAPLINEFNSPQCMLCTDDRNPWEIAHEGHIDALIRRLIEQHNVPLHVAYRVASWSTARHFGLNHLGLLAPGKQADIVLLSDARKVTVQQVLVKGEPIDAQTLQAEESARLAQSAPPYGNTIARQPVSASDFALQFTPGKRYRVIDVIHNELITHSHSSVYSENGFDRDDVSFIAVLERYGQRLAPACGLLGGFGLNEGALAATVSHDSHNIVVIGRSAEEMALAVNQVIQDGGGLCVVRNGQVQSHLPLPIAGLMSTDTAQSLAEQIDALKAAARECGPLPDEPFIQMAFLSLPVIPALKLTSQGLFDGEKFAFTTLEVTE | – | – | 2.16 ± 0.17 | 3.24 ± 0.11 | 4.14 ± 0.77 | 4.53 | – | 3.19 ± 0.16 | 4.26 ± 0.098 | – | – | 3.61 ± 1.4
12 | MNNIAPQSPVMRRLTLQDNPAIARVIRQVSAEYGLTADKGYTVADPNLDELYQVYSQPGHAYWVVEYEGEVVGGGGIAPLTGSESDICELQKMYFLPAIRGKGLAKKLALMAMEQAREMGFKRCYLETTAFLKEAIALYEHLGFEHIDYALGCTGHVDCEVRMLREL | 3.77 ± 0.61 | 3.89 ± 0.23 | 2.95 ± 0.76 | 3.93 ± 0.64 | 10.6 ± 2.3 | 4.53 ± 0.45 | 3.54 ± 0.28 | 5.11 ± 0.59 | 6.43 ± 0.74 | 4.37 ± 0.26 | 7.32 ± 0.57 | 5 ± 0.34
